According to patent US6465254, “Mutant loxP site and applications thereof” (Sumitomo Pharmaceuticals Company, Limited):
Substitutions are numbered along the chain they refer to.

B1: mutant loxP #2171 (dsDNA)
DNA 1: ATAACTTCGTATAACGTATACTATACGAAGTTAT
DNA 2: ATAACTTCGTATAGTATACGTTATACGAAGTTAT
B2: mutant loxP #4372 (dsDNA)
DNA 1: B1 DNA 1 with C15T, T17G, A20C
DNA 2: B1 DNA 2 with T15G, A18C, G20A
B3: mutant loxP #2371 (dsDNA)
DNA 1: B1 DNA 1 with C15G
DNA 2: B1 DNA 2 with G20C
B4: mutant loxP #3271 (dsDNA)
DNA 1: B1 DNA 1 with C15T, G16C
DNA 2: B1 DNA 2 with C19G, G20A
B5: mutant loxP #2273 (dsDNA)
DNA 1: B1 DNA 1 with C15A, A20T
DNA 2: B1 DNA 2 with T15A, G20T
B6: mutant loxP #4271 (dsDNA)
DNA 1: B1 DNA 1 with C15T, T17A
DNA 2: B1 DNA 2 with A18T, G20A
B7: mutant loxP #2172 (dsDNA)
DNA 1: B1 DNA 1 with A20C
DNA 2: B1 DNA 2 with T15G
B8: mutant loxP #4371 (dsDNA)
DNA 1: B1 DNA 1 with C15T, T17G
DNA 2: B1 DNA 2 with A18C, G20A
B9: mutant loxP #3171 (dsDNA)
DNA 1: B1 DNA 1 with C15T, G16A
DNA 2: B1 DNA 2 with C19T, G20A
B10: mutant loxP #4272 (dsDNA)
DNA 1: B1 DNA 1 with C15T, T17A, A20C
DNA 2: B1 DNA 2 with T15G, A18T, G20A
B11: mutant loxP #31 (dsDNA)
DNA 1: B1 DNA 1 with C15T, G16A, A20G
DNA 2: B1 DNA 1 with A14G, G16A, C21T
B12: mutant loxP #42 (dsDNA)
DNA 1: B1 DNA 1 with C15T, T17A, A20G
DNA 2: B1 DNA 2 with T15C, A18T, G20A
B13: mutant loxP #43 (dsDNA)
DNA 1: B1 DNA 1 with C15T, T17G, A20G
DNA 2: B1 DNA 2 with T15C, A18C, G20A
B14: mutant loxP #73 (dsDNA)
DNA 1: B1 DNA 1 with C15T, A20T
DNA 2: B1 DNA 2 with T15A, G20A
B15: mutant loxP #72 (dsDNA)
DNA 1: B1 DNA 1 with C15T, A20C
DNA 2: B1 DNA 2 with T15G, G20A
B16: mutant loxP #81 (dsDNA)
DNA 1: B1 DNA 1 with C15T, A20G, C21T
DNA 2: B1 DNA 1 with G16A, T19C, C21T
B17: mutant loxP #32 (dsDNA)
DNA 1: B1 DNA 1 with C15T, G16C, A20G
DNA 2: B1 DNA 2 with T15C, C19G, G20A
B18: mutant loxP #12 (dsDNA)
DNA 1: B1 DNA 1 with A14T, C15T, A20G
DNA 2: B1 DNA 2 with T15C, G20A, T21A
B19: mutant loxP #33 (dsDNA)
DNA 1: B1 DNA 1 with C15T, G16T, A20G
DNA 2: B1 DNA 2 with T15C, C19A, G20A
B20: mutant loxP #23 (dsDNA)
DNA 1: B1 DNA 1 with C15G, A20G
DNA 2: B1 DNA 2 with T15C, G20C
B21: mutant loxP #2271 (dsDNA)
DNA 1: B1 DNA 1 with C15A
DNA 2: B1 DNA 2 with G20T
B22: mutant loxP #11 (dsDNA)
DNA 1: B1 DNA 1 with A14G, C15T, A20G
DNA 2: B1 DNA 1 with A14G, G16A, T19C
B23: mutant loxP #13 (dsDNA)
DNA 1: B1 DNA 1 with A14C, C15T, A20G
DNA 2: B1 DNA 2 with T15C, G20A, T21G
B24: mutant loxP #21 (dsDNA)
DNA 1: B1 DNA 1 with A20G
DNA 2: B1 DNA 2 with T15C
B25: mutant loxP #22 (dsDNA)
DNA 1: B1 DNA 1 with C15A, A20G
DNA 2: B1 DNA 2 with T15C, G20T
B26: mutant loxP #5373 (dsDNA)
DNA 1: B1 DNA 1 with C15T, A18C, A20T
DNA 2: B1 DNA 2 with T15A, T17G, G20A
B27: mutant loxP #6272 (dsDNA)
DNA 1: B1 DNA 1 with C15T, T19A, A20C
DNA 2: B1 DNA 2 with T15G, A16T, G20A
B28: mutant loxP #6373 (dsDNA)
DNA 1: B1 DNA 1 with C15T, T19G, A20T
DNA 2: B1 DNA 2 with T15A, A16C, G20A
B29: mutant loxP #5272 (dsDNA)
DNA 1: B1 DNA 1 with C15T, A18T, A20C
DNA 2: B1 DNA 2 with T15G, T17A, G20A
B30: mutant loxP #63 (dsDNA)
DNA 1: B1 DNA 1 with C15T, T19G, A20G
DNA 2: B1 DNA 2 with T15C, A16C, G20A
B31: mutant loxP #51 (dsDNA)
DNA 1: B1 DNA 1 with C15T, A18G, A20G
DNA 2: B1 DNA 2 with T15C, T17C, G20A
B32: mutant loxP #52 (dsDNA)
DNA 1: B1 DNA 1 with C15T, A18T, A20G
DNA 2: B1 DNA 2 with T15C, T17A, G20A
B33: mutant loxP #61 (dsDNA)
DNA 1: B1 DNA 1 with C15T, T19C, A20G
DNA 2: B1 DNA 1 with A14G, T19C, C21T
B34: mutant loxP #41 (dsDNA)
DNA 1: B1 DNA 1 with C15T, T17C, A20G
DNA 2: B1 DNA 2 with T15C, A18G, G20A
B35: mutant loxP #62 (dsDNA)
DNA 1: B1 DNA 1 with C15T, T19A, A20G
DNA 2: B1 DNA 2 with T15C, A16T, G20A
B36: mutant loxP #53 (dsDNA)
DNA 1: B1 DNA 1 with C15T, A18C, A20G
DNA 2: B1 DNA 2 with T15C, T17G, G20A
B37: mutant loxP #3272 (dsDNA)
DNA 1: B1 DNA 1 with C15T, G16C, A20C
DNA 2: B1 DNA 2 with T15G, C19G, G20A
B38: mutant loxP #2373 (dsDNA)
DNA 1: B1 DNA 1 with C15G, A20T
DNA 2: B1 DNA 2 with T15A, G20C
B39: mutant loxP #3373 (dsDNA)
DNA 1: B1 DNA 1 with C15T, G16T, A20T
DNA 2: B1 DNA 2 with T15A, C19A, G20A
B40: mutant loxP #3372 (dsDNA)
DNA 1: B1 DNA 1 with C15T, G16T, A20C
DNA 2: B1 DNA 2 with T15G, C19A, G20A

What follows are binders tested against T1, Cre recombinase (UniProt P06956 P06956:1-343) (assay: self x self; intermediate 3). Conditions: tags: expressed from recombinant adenovirus AxCANCre in 293 cells.
T1 sequence (P06956 whole entry, one chain of several): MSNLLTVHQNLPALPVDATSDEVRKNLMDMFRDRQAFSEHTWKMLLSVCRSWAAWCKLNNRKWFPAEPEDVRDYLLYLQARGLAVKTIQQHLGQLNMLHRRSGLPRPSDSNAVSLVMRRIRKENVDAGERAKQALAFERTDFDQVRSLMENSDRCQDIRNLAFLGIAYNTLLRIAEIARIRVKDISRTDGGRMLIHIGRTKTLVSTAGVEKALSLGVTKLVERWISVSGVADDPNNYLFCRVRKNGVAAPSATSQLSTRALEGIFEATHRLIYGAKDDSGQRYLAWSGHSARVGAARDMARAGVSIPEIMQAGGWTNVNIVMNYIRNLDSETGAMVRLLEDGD

Going from B1 to B2, the activity falls from 3 grade 0-9 final product to 2 grade 0-9 final product.

First: B3
Second: B4
The activity of the first is lower: 2 grade 0-9 final product for the first, 4 grade 0-9 final product for the second.

B5 was tested, and the activity was 4 grade 0-9 final product.

These binders were tested against T1, Cre recombinase (assay: self x self; intermediate 4). Conditions: tags: expressed from recombinant adenovirus AxCANCre in 293 cells.

B6 and B7 are the same in activity: 2 grade 0-9 final product for the first, 2 grade 0-9 final product for the second.

Going from B8 to B9, the activity rises from 2 grade 0-9 final product to 7 grade 0-9 final product.

B10 was tested, and the activity was 1 grade 0-9 final product.

Each binder was assayed against T1, Cre recombinase (assay: self x self; intermediate 5). Conditions: tags: expressed from recombinant adenovirus AxCANCre in 293 cells.
Method: (§1) Substrate DNA (1 μg) prepared in (3) and cell extract containing Cre (10 μl) prepared in (1) were incubated at 37° C. for 30 min in a 50 μl volume of buffer containing 50 mM Tris-HCl (pH 7.5)/10 mM MgCl2/1 mg/ml bovine serum albumin/1 mM phenylmethylsulfonyl fluoride (PMSF)/5 μg/ml aprotinin. After completion of the reaction, 45 μl of TE buffer (pH 8.0) and 5 μl of EDTA solution (pH 8.0) were added to the reaction mixture, extracted with phenol/chloroform and with chloroform, followed ethanol precipitation. The recovered DNA was dissolveld in 30 μl of TE buffer (pH 8.0) containing RNase A (20 μg/ml). Half volume thereof was digested with restriction enzyme BsaHI. The DNA bands detected by ethidium bromide (EtBr) staining after agarose gel electrophoresis, were analyzed.
(§2) Before recombination mediated by Cre, restriction enzyme BsaHI digestion of linear substrate DNA (approx. 4.1 kb) generates four bands of 2.7 kb, 610 bp, 380 bp and 360 bp. On the other hand, as a result of recombination of substrate DNA mediated by Cre, a circular DNA of approx. 4.0 kb containing one mutant loxP, and a linear DNA of approx. 50 bp consisting of only mutant loxP, are produced. Digestion of these DNA with restriction enzyme BsaHI generates four bands of 2.7 kb, 920 bp, 380 bp and 50 bp (refer to FIG. 6).

First: B11
Second: B12
The activity of the first is higher: 7 grade 0-9 final product for the first, 6 grade 0-9 final product for the second.

B13 gave an activity of 6 grade 0-9 final product.

Biological target: T1, Cre recombinase
Assay: self x self; intermediate 3
Conditions: tags: expressed from recombinant adenovirus AxCANCre in 293 cells
Remark: another data set of the same source
Method: as §1, §2

First: B14
Second: B15
The activity of the first is lower: 1 grade 0-9 final product for the first, 7 grade 0-9 final product for the second.

Binder B16 has an activity of 3 grade 0-9 final product.

Each binder was assayed against T1, Cre recombinase (assay: self x self; intermediate 6). Conditions: tags: expressed from recombinant adenovirus AxCANCre in 293 cells.
Method: as §1, §2

B17 and B18 are the same in activity: 3 grade 0-9 final product for the first, 3 grade 0-9 final product for the second.

First: B19
Second: B20
The activity of the first is higher: 6 grade 0-9 final product for the first, 5 grade 0-9 final product for the second.

These binders were tested against T1, Cre recombinase (assay: self x self; intermediate 2). Conditions: tags: expressed from recombinant adenovirus AxCANCre in 293 cells.

In the case of B21, the activity is reported as 6 grade 0-9 final product.

Biological target: T1, Cre recombinase
Assay: self x self; intermediate 4
Conditions: tags: expressed from recombinant adenovirus AxCANCre in 293 cells
Remark: another data set of the same source
Method: as §1, §2

First: B22
Second: B23
The activity of the first is lower: 2 grade 0-9 final product for the first, 3 grade 0-9 final product for the second.

B24 and B25 are the same in activity: 5 grade 0-9 final product for the first, 5 grade 0-9 final product for the second.

Each binder was assayed against T1, Cre recombinase (assay: self x self; intermediate 1). Conditions: tags: expressed from recombinant adenovirus AxCANCre in 293 cells.

B26 and B27 are the same in activity: 2 grade 0-9 final product for the first, 2 grade 0-9 final product for the second.

Compared with B28, B29 is higher in activity: 2 grade 0-9 final product for the first, 4 grade 0-9 final product for the second.

Biological target: T1, Cre recombinase
Assay: self x self; intermediate 1
Conditions: tags: expressed from recombinant adenovirus AxCANCre in 293 cells
Remark: another data set of the same source
Method: as §1, §2

B30 and B31 are the same in activity: 9 grade 0-9 final product for the first, 9 grade 0-9 final product for the second.

Compared with B32, B33 is lower in activity: 9 grade 0-9 final product for the first, 8 grade 0-9 final product for the second.

First: B34
Second: B35
The activity of the first is lower: 7 grade 0-9 final product for the first, 8 grade 0-9 final product for the second.

In the case of B36, the activity is reported as 8 grade 0-9 final product.

Biological target: T1, Cre recombinase
Assay: self x self; intermediate 6
Conditions: tags: expressed from recombinant adenovirus AxCANCre in 293 cells
Remark: another data set of the same source

First: B37
Second: B38
The activity of the first is higher: 2 grade 0-9 final product for the first, 1 grade 0-9 final product for the second.

First: B39
Second: B40
The activity of the first is higher: 2 grade 0-9 final product for the first, 1 grade 0-9 final product for the second.
